Here are results for ten molecules from patent US11932845B2, “Microorganisms and methods for production of 4-hydroxybutyrate, 1,4-butanediol and related compounds” (priority 2012, dated 2024).

The conditions of series [1]: Minohara et al., 2002; read-out: Km for O2; cited from earlier work.
Series [2] concerns alcohol dehydrogenase from Brevibacterium sp KU 1309. The note with it: reduction of carbonyl compounds; cited from earlier work.
A further series has as its system Alcohol dehydrogenase. The experiment in a line: Alcohol dehydrogenase (ADH) assay in the reductive direction, cell extracts. The settings on record: cell extracts from MG1655 lacI^Q containing pZA33.
The subject of another series is Aldehyde dehydrogenase. The series can be described thus: Aldehyde dehydrogenase (ALD) assay in the reductive direction, cell extracts. The settings on record: cell extracts from MG1655 lacI^Q containing pZA33.
In series [3] the test system is L(+)-lactate dehydrogenase from A. eutrophus. The settings on record: compared with that on pyruvate; cited from earlier work.
In series [4] the target is T1, L(+)-lactate dehydrogenase from rabbit muscle (Oryctolagus cuniculus, UniProt P13491).
T1 construct: host or cells: rabbit muscle
The note with it: compared with that on pyruvate; cited from earlier work.

For series [5], the system named is D(−)-lactate dehydrogenase from L. leichmanii. The settings on record: compared with that on pyruvate; cited from earlier work.
Series [6] has as its system branched chain alpha-ketoacid decarboxylase (BCKA). The settings on record: decarboxylation; cited from earlier work.
In series [7] the target is T2, phosphotransbutyrylase (ptb) (Clostridium acetobutylicum, UniProt P58255).
T2 sequence (P58255 whole entry, looked up): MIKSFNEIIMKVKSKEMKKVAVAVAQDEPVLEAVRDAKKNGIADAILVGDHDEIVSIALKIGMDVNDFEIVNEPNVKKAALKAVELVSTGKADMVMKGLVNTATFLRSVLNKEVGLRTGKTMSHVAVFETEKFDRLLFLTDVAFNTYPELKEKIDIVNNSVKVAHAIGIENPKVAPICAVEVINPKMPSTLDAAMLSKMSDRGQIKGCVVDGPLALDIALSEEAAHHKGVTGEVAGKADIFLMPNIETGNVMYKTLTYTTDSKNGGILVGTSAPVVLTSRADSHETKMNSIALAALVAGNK
The series can be described thus: PTB enzyme activity, butyryl-CoA to butyryl-phosphate, DTNB. The series is classed as biochemical, C. acetobutylicum. The note with it: extracts of cells with pZA33-0020-0021. The procedure:
The enzyme activity of PTB is measured in the direction of butyryl-CoA to butyryl-phosphate as described in Cary et al. J. Bacteriol. 170:4613-4618 (1988). It provides inorganic phosphate for the conversion, and follows the increase in free CoA with the reagent 5,5′-dithiobis-(2-nitrobenzoic acid), or DTNB. DTNB rapidly reacts with thiol groups such as free CoA to release the yellow-colored 2-nitro-5-mercaptobenzoic acid (TNB), which absorbs at 412 nm with a molar extinction coefficient of 14,140 M cm^−1. The assay buffer contained 150 mM potassium phosphate at pH 7.4, 0.1 mM DTNB, and 0.2 mM butyryl-CoA, and the reaction was started by addition of 2 to 50 μL cell extract. The enzyme activity of BK is measured in the direction of butyrate to butyryl-phosphate formation at the expense of ATP. The procedure is similar to the assay for acetate kinase previously described Rose et al., J. Biol. Chem. 211:737-756 (1954). […] This assay links conversion of ATP to ADP by acetate kinase to the linked conversion of ADP and phosphoenolpyruvate (PEP) to ATP and pyruvate by pyruvate kinase, followed by the conversion of pyruvate and NADH to lactate and NAD+ by lactate dehydrogenase. […] The reaction was started by adding 2 to 50 μL cell extract, and the reaction was monitored based on the decrease in absorbance at 340 nm indicating NADH oxidation.

A further series has as its system BDO pathway. It counts as cell-based, E. coli. The note with it: host ECKh-432 with aldehyde dehydrogenase; 23G needle.
Series [8] concerns 4-HB to BDO conversion pathway. The experiment in a line: Production of BDO from 10 mM 4-HB in recombinant E. coli strains. The note with it: for BDO: adhE2 in pZE13.
Protocol: For the BDO production experiments, cat2 from Porphyromonas gingivalis W83 (gene 0034) was included on pZA33 for the conversion of 4-HB to 4-HB-CoA, while the candidate dehydrogenase genes were expressed on pZE13. The host strain was MG1655 lacI^Q. Along with the alcohol and aldehyde dehydrogenase candidates, we also tested the ability of CoA-dependent succinic semialdehyde dehydrogenases (sucD) to function in this step, due to the similarity of the substrates. Cells were grown to an OD of about 0.5 in LB medium supplemented with 10 mM 4-HB, induced with 1 mM IPTG, and culture broth samples taken after 24 hours and analyzed for BDO as described below.
Finally, the construct was tested for participation in the conversion of 4-HB to BDO. Host strains were transformed with the pZA33-0020-0021 construct described and pZE13-0002, and compared to use of cat2 in BDO production using the aerobic procedure used above in FIG. 5.

Protocol for Aldehyde dehydrogenase: Alcohol (ADH) and aldehyde (ALD) dehydrogenase was assayed in the reductive direction using a procedure adapted from several literature sources (Durre et al., FEMS Microbiol. Rev. 17:251-262 (1995); Palosaari and Rogers, J. Bacteriol. 170:2971-2976 (1988) and Welch et al., Arch. Biochem. Biophys. 273:309-318 (1989). The oxidation of NADH is followed by reading absorbance at 340 nm every four seconds for a total of 240 seconds at room temperature. The reductive assays were performed in 100 mM MOPS (adjusted to pH 7.5 with KOH), 0.4 mM NADH, and from 1 to 50 μl of cell extract. The reaction is started by adding the following reagents: 100 μl of 100 mM acetaldehyde or butyraldehyde for ADH, or 100 μl of 1 mM acetyl-CoA or butyryl-CoA for ALD. The Spectrophotometer is quickly blanked and then the kinetic read is started. The resulting slope of the reduction in absorbance at 340 nm per minute, along with the molar extinction coefficient of NAD(P)H at 340 nM (6000) and the protein concentration of the extract, can be used to determine the specific activity.
Gene candidates for the 4-HB to BDO conversion pathway were next tested for activity when expressed in the E. coli host MG1655 lacI^Q. Recombinant strains containing each gene candidate expressed on pZA33 were grown in the presence of 0.25 mM IPTG for four hours at 37° C. to fully induce expression of the enzyme. Four hours after induction, cells were harvested and assayed for ADH and ALD activity as described above.

Usually Km stands for the concentration of substrate that gives half-maximal velocity. On to “cytochrome bd oxidase: E. coli cytochrome d terminal oxidase, encoded by the cyd operon”, for which the Km in [1] is 0.01 µM.
`CCCCCCCC=O` [1-Octylaldehyde]: the “Relative Activity” value in series [2] is recorded as 87%.
In the case of “0011: Gene ID 0011, adhE, E. coli, Aldehyde/alcohol dehydrogenase [Sample 0011]”, in the series with Alcohol dehydrogenase, the “Alcohol dehydrogenase, Substrate Acetaldehyde” value is reported as 0.0093 μmol min^−1 mg cell protein^−1 and the “Alcohol dehydrogenase, Substrate Butyraldehyde” value is listed as 0.0265 μmol min^−1 mg cell protein^−1. Further, in the series on Aldehyde dehydrogenase, the “Aldehyde dehydrogenase, Substrate Acetyl-CoA” value is listed as 0.0095 μmol min^−1 mg cell protein^−1 and the “Aldehyde dehydrogenase, Substrate Butyryl-CoA” value was 0.0069 μmol min^−1 mg cell protein^−1.
As to `CC(=O)c1ccccc1` [Acetophenone], in series [2], the “Relative Activity” value is on record as 0%.
Consider `O=C(O)CCC(=O)C(=O)O` [2-Oxoglutarate], for which the “Activity (%) of L(+)-lactate dehydrogenase from A. eutrophus” value in [3] was 79.6%. The “Activity (%) of L(+)-lactate dehydrogenase from rabbit muscle” value in series [4] is recorded as 0.0%. Further, the “Activity (%) of D(−)-lactate dehydrogenase from L. leichmanii” value in series [5] was 0.0%. Further, the “activity relative to activity on other branched-chain substrates” value in series [6] is listed as 5%.
For the molecule `CC(C=O)c1ccccc1` (stereo not drawn) [2-Phenylpropionaldehyde], the “Relative Activity” value in [2] is listed as 188%.
On to `O=CCc1ccccc1` [Phenylacetaldehyde], for which the “Relative Activity” value in series [2] was 100%.

B1: PTB: phosphotransbutyrylase (ptb) from C. acetobutylicum, gene 0020 (protein, UniProt P58255 1-301, looked up)
Phosphate butyryltransferase: T2 sequence (P58255 whole entry, looked up)
Regarding B1, the “specific activity of PTB” value in [7] is recorded as “approximately 5 U/mg”.

B2: 0034: Gene ID 0034, cat2, Porphyromonas gingivalis W83, 4-hydroxybutyrate coenzyme A transferase (protein, listed as Porphyromonas gingivalis)
chain: MKDVLAEYASRIVSAEEAVKHIKNGERVALSHAAGVPQSCVDALVQQADLFQNVEIYHMLCLGEGKYMAPEMAPHFRHITNFVGGNSRKAVEENRADFIPVFFYEVPSMIRKDILHIDVAIVQLSMPDENGYCSFGVSCDYSKPAAESAHLVIGEINRQMPYVHGDNLIHISKLDYIVMADYPIYSLAKPKIGEVEEAIGRNCAELIEDGATLQLGIGAIPDAALLFLKDKKDLGIHTEMFSDGVVELVRSGVITGKKKTLHPGKMVATFLMGSEDVYHFIDKNPDVELYPVDYVNDPRVIAQNDNMVSINSCIEIDLMGQVVSECIGSKQFSGTGGQVDYVRGAAWSKNGKSIMAIPSTAKNGTASRIVPIIAEGAAVTTLRNEVDYVVTEYGIAQLKGKSLRQRAEALIAIAHPDFREELTKHLRKRFG
With B2, in the series with BDO pathway, the “BDO and GBL levels” value is listed as “significantly higher than 2021n”. Besides, the BDO/OD is given as 0.042 in series [8] (Host Strain MG1655 lacI^Q) and 0.166 in [8] (Host Strain MG1655 ΔadhE lacI^Q). In addition, the BDO in [8] (Host Strain MG1655 lacI^Q, aerobic procedure) was determined as 0.827 µM; in [8] (Host Strain MG1655 ΔadhE lacI^Q, aerobic procedure), 2.084 µM. In addition, the BDO produced in series [8] (with pZE13-0002, aerobic procedure) worked out at 2 mM.

B3: 0026: Gene ID 0026, bdhA, Clostridium acetobutylicum ATCC 824, Butanol dehydrogenase (protein, UniProt Q04944 1-389, looked up)
NADH-dependent butanol …: MLSFDYSIPTKVFFGKGKIDVIGEEIKKYGSRVLIVYGGGSIKRNGIYDRATAILKENNIAFYELSGVEPNPRITTVKKGIEICRENNVDLVLAIGGGSAIDCSKVIAAGVYYDGDTWDMVKDPSKITKVLPIASILTLSATGSEMDQIAVISNMETNEKLGVGHDDMRPKFSVLDPTYTFTVPKNQTAAGTADIMSHTFESYFSGVEGAYVQDGIAEAILRTCIKYGKIAMEKTDDYEARANLMWASSLAINGLLSLGKDRKWSCHPMEHELSAYYDITHGVGLAILTPNWMEYILNDDTLHKFVSYGINVWGIDKNKDNYEIAREAIKNTREYFNSLGIPSKLREVGIGKDKLELMAKQAVRNSGGTIGSLRPINAEDVLEIFKKSY
As for B3, in the series on Alcohol dehydrogenase, the “Alcohol dehydrogenase, Substrate Acetaldehyde” value is recorded as 0.0008 μmol min^−1 mg cell protein^−1 and the “Alcohol dehydrogenase, Substrate Butyraldehyde” value is reported as 0.0024 μmol min^−1 mg cell protein^−1. For the same molecule, in the series with Aldehyde dehydrogenase, the “Aldehyde dehydrogenase, Substrate Acetyl-CoA” value is given as 0.0005 μmol min^−1 mg cell protein^−1 and the “Aldehyde dehydrogenase, Substrate Butyryl-CoA” value is 0 μmol min^−1 mg cell protein^−1.
